Laboratory results reported in US8906858B2, “Method for the prophylactic or therapeutic treatment of glucocorticoid-induced osteoporosis” (Fritz-Lipmann-Institut E. V. Leibniz-Institut Fuer …, priority 2010, dated 2014).

B1: IL-11: recombinant Interleukin-11 (protein, UniProt P20809 22-199, looked up)
Interleukin-11: PGPPPGPPRVSPDPRAELDSTVLLTRSLLADTRQLAAQLRDKFPADGDHNLDSLPTLAMSAGALGALQLPGVLTRLRADLLSYLRHVQWLRRAGGSSLKTLEPELGTLQARLDRLLRRLQLLMSRLALPQPPPDPPAPPLAPPSSAWGGIRAAHAILGGLHLTLDWAVRGLLLLKTRL
B2: HB-EGF: heparin binding-epidermal growth factor (protein, UniProt Q99075 63-148, looked up)
Heparin-binding EGF-like …: DLQEADLDLLRVTLSSKPQALATPNKEEHGKRKKKGKGLGKKRDPCLRKYKDFCIHGECKYVKELRAPSCICHPGYHGERCHGLSL

Tested on: primary wild type osteoblasts
Experiment: Soluble factors added to osteoblasts during osteogenic induction in presence or absence of Dex
Type: cell-based, mouse
Method: FIG. 7. Differential gene regulation in GR^dim osteoblasts and bone organs by GCs and involvement of AP-1 in suppression of IL-11 in osteoblast differentiation. (A-E) Primary osteoblasts were grown until confluence and treated as described in FIG. 4A. qRT-PCR-determined mRNA expression levels of GILZ, Per-1, KLF15, Lif (LIF) and II11 (IL-11) after six hours. (F-H) qRT-PCR-determined mRNA expression level of IL-11 in organ cultures of GR mutant fetal hind legs (F), in dN^Runx2Cre osteoblasts (G) and c-jun^null MEFs (H) after six hours treatment. (I) Chromatin immunoprecipitation of MEFs after six hours. […] IgG precipitation served as negative control and amplification of the input as positive control. […] At day 10, ALP activity was determined and at day 20, Alizarin Red staining was performed. (K) Quantification of ALP-positive cells treated as in (J) after 10 days. (L) qRT-PCR-determined Runx2 mRNA expression level in cells treated as in (J) after 10 days.
FIG. 13. Effects of GR regulated soluble factors on osteoblast cell numbers. […] At day 10 cell counts were determined by automatic microscopy. Data are represented as mean+/−SEM. *<0.05.
FIG. 14. Effects of GR regulated soluble factors on osteoblast cell differentiation. Primary wild type osteoblasts were differentiated with or without Dex. At day 10 the specific ALP activity was determined and is depicted as ALP positive cells in percent in the absence or presence of NGF (A), IL-6 (B), EGF (C) and LIF (D). Data are represented as mean+/−SEM. * p<0.05; ** p<0.01.
Primary osteoblasts were isolated from either embryonic (E18.5) or neonatal calvaria by sequential digestions and cultivated as previously described (David et al., 2005). c-Jun-deficient cells were obtained from previously described mice (Schreiber et al., 1999). […] Differentiation of osteoblasts was determined by staining for ALP activity (ALP kit, Sigma or ELF® Phosphatase Detection Kit, ATCC) or by Alizarin Red staining (Sigma) at indicated time points. Apoptosis was detected by In situ Cell Death Detection Kit (Roche), and proliferation with fluorescent immunohistochemistry using mouse anti-Ki-67 (BD Pharmingen™) and Alexa Fluor® 594-labeled donkey anti-mouse IgG (Molecular Probes™). Quantification of the stainings and cell numbers according to DAPI labeling was performed by automated microscopy using Cellomics ArrayScan and software HCS Scan® (Thermo-Fischer). The factors EGF (Calbiochem), NGF2 (Sigma), IL-6 (ImmunoTools), IL-11 (Antigenix America, Inc.) and LIF (Chemicon) were added to the culture after differentiation at concentrations of 0.8, 4 and 20 ng/ml. qRT-PCR was performed as previously described (Tuckermann et al., 2007). Primer information can be provided upon request.

Row | Molecule | rescue of Dex-impaired osteoblast differentiation (ALP positive cells) (day 10, with Dex) | rescue of Dex-reduced osteoblast cell numbers (day 10, with Dex) | Dex suppression of ALP activity, of Runx2 expression and calcification (in the presence of IL-11) | effect on osteoblast differentiation
1 | B1 | potently antagonized | not rescuing | fully restored | –
2 | B2 | – | – | – | inhibitory effect
